Sequences and labels used below:
B1: Synaptotagmin-1 (Rattus norvegicus (Rat)), P21707 (parent)
chain: MVSASHPEALAAPVTTVATLVPHNATEPASPGEGKEDAFSKLKQKFMNELHKIPLPPWALIAIAIVAVLLVVTCCFCVCKKCLFKKKNKKKGKEKGGKNAINMKDVKDLGKTMKDQALKDDDAETGLTDGEEKEEPKEEEKLGKLQYSLDYDFQNNQLLVGIIQAAELPALDMGGTSDPYVKVFLLPDKKKKFETKVHRKTLNPVFNEQFTFKVPYSELGGKTLVMAVYDFDRFSKHDIIGEFKVPMNTVDFGHVTEEWRDLQSAEKEEQEKLGDICFSLRYVPTAGKLTVVILEAKNLKKMDVGGLSDPYVKIHLMQNGKRLKKKKTTIKKNTLNPYYNESFSFEVPFEQIQKVQVVVTVLDYDKIGKNDAIGKVFVGYNSTGAELRHWSDMLANPRRPIAQWHTLQVEEEVDAMLAVKK

The values that follow come from IntAct's records for PubMed 26437117.

In the experiment the parent is B1. The note with it: with stx1a_mouse Stx1a.
On to D178A;D230A;D232A;D309A;D363A;D365A, for which the “effect of a mutation on the interaction” value was “decreasing interaction strength”.
